Substrate: CCCC(=O)Oc1ccc([N+](=O)[O-])cc1
Assay: purified protein
Format: biochemical, Qipengyuania seohaensis
Settings: standard assay: 50 mM CHES pH 10.0, 40 °C, 0.05-4.0 mM substrate

B1: E69 (Qipengyuania seohaensis) (protein)
chain: MRDHGERFVVEAEERRTVSIERTNLGGVNIAWVSPSDKVPSSDGPLIFNLHDGGFALNDGDAALYTAVSFAELQQLDSVSVDYRLTPQHPYPAALEDAVAAYAVIKRKMPGRPIVVYGLSAGGGLGAAFLLKVKQLGLPMPEAAVLNSPWSDVSMNSDTLATLDCYDPLLGGSRPTLKPLANSYAAGADPQDPLVSPVYGDWEGVDVPVLLISGTRDVMLGDTVRLHRAMWRAGVPAELIVNEGMWHAFSVEPEFEAMIADSARFIRHISAKED
notes: expressed in E. coli BL21 (DE3) from pSMT3 as N-terminal His6-SUMO fusion, tag cleaved with ULP1 and removed; about 30 kDa on SDS-PAGE
B1 gave a Km of 2200 ± 300 µM.

From PMC5702849, “A Novel Halotolerant Thermoalkaliphilic Esterase from Marine Bacterium Erythrobacter seohaensis SW-135” (Frontiers in Microbiology, 2017)
